Assay results as given in patent US20230340058A1.

B1: Relaxin-2 (R&D Biosystems 6586-RN-025) (ligand)
chain 1: DSWMEEVIKLCGRELVRAQIAICGMSTWS
chain 2: QLYSALANKCCHVGCTKRSLARFC
B2: SEQ ID NO: 204 (Fc fusion)
chain: DKTHTCPPCPAPEAAGGPSVFLFPPKPKDTLMISRTPEVTCVVVDVSHEDPEVKFNWYVDGVEVHNAKTKPREEQYNSTYRVVSVLTVLHQDWLNGKEYKCKVSNKALAAPIEKTISKAKGQPREPQVYTLPPSRDELTKNQVSLTCLVKGFYPSDIAVEWESNGQPENNYKTTPPVLDSDGSFFLYSKLTVDKSRWQQGNVFSCSVLHEALHSHYTQKSLSLSPGKGGSDSWKEEVIKLCGRELVRAQIAICGKSTGGGEGGGEGGGEGRQLYSALANKCCHVGCTKRSLARFC
B3: SEQ ID NO: 205 (Fc fusion)
chain: DKTHTCPPCPAPEAAGGPSVFLFPPKPKDTLMISRTPEVTCVVVDVSHEDPEVKFNWYVDGVEVHNAKTKPREEQYNSTYRVVSVLTVLHQDWLNGKEYKCKVSNKALAAPIEKTISKAKGQPREPQVYTLPPSRDELTKNQVSLTCLVKGFYPSDIAVEWESNGQPENNYKTTPPVLDSDGSFFLYSKLTVDKSRWQQGNVFSCSVLHEALHSHYTQKSLSLSPGKGGSDSWKEEVIKLCGRELVRAQIAICGKSTGGGEGGGEGGGEGGGQLYSALANKCCHVGCTKRSLARFC
B4: SEQ ID NO: 206 (Fc fusion)
chain: DKTHTCPPCPAPEAAGGPSVFLFPPKPKDTLMISRTPEVTCVVVDVSHEDPEVKFNWYVDGVEVHNAKTKPREEQYNSTYRVVSVLTVLHQDWLNGKEYKCKVSNKALAAPIEKTISKAKGQPREPQVYTLPPSRDELTKNQVSLTCLVKGFYPSDIAVEWESNGQPENNYKTTPPVLDSDGSFFLYSKLTVDKSRWQQGNVFSCSVLHEALHSHYTQKSLSLSPGKGGSDSWMEEVIKLCGRELVRAQIAICGKSTGGGEGGGEGGGEGRQLYSALANKCCHVGCTKRSLARFC
B5: SEQ ID NO: 57 (Fc fusion)
chain: DKTHTCPPCPAPEAAGGPSVFLFPPKPKDTLMISRTPEVTCVVVDVSHEDPEVKFNWYVDGVEVHNAKTKPREEQYNSTYRVVSVLTVLHQDWLNGKEYKCKVSNKALAAPIEKTISKAKGQPREPQVYTLPPSRDELTKNQVSLTCLVKGFYPSDIAVEWESNGQPENNYKTTPPVLDSDGSFFLYSKLTVDKSRWQQGNVFSCSVLHEALHSHYTQKSLSLSPGKGGSDSWQEEVIKLCGRELVRAQIAICGKSTGGGEGGGEGGGEGRQLYSALANKCCHVGCTKRSLARFC
B6: SEQ ID NO: 207 (Fc fusion)
chain: DKTHTCPPCPAPEAAGGPSVFLFPPKPKDTLMISRTPEVTCVVVDVSHEDPEVKFNWYVDGVEVHNAKTKPREEQYNSTYRVVSVLTVLHQDWLNGKEYKCKVSNKALAAPIEKTISKAKGQPREPQVYTLPPSRDELTKNQVSLTCLVKGFYPSDIAVEWESNGQPENNYKTTPPVLDSDGSFFLYSKLTVDKSRWQQGNVFSCSVLHEALHSHYTQKSLSLSPGKGGSDSWMEEVIKLCGRELVRAQIAICGKSTGGGEGGGEGGGEGGGQLYSALANKCCHVGCTKRSLARFC
B7: SEQ ID NO: 60 (Fc fusion)
chain: DKTHTCPPCPAPEAAGGPSVFLFPPKPKDTLMISRTPEVTCVVVDVSHEDPEVKFNWYVDGVEVHNAKTKPREEQYNSTYRVVSVLTVLHQDWLNGKEYKCKVSNKALAAPIEKTISKAKGQPREPQVYTLPPSRDELTKNQVSLTCLVKGFYPSDIAVEWESNGQPENNYKTTPPVLDSDGSFFLYSKLTVDKSRWQQGNVFSCSVLHEALHSHYTQKSLSLSPGKGGSDSWQEEVIKLCGRELVRAQIAICGKSTGGGEGGGEGGGEGGGQLYSALANKCCHVGCTKRSLARFC
B8: SEQ ID NO: 208 (Fc fusion)
chain: DKTHTCPPCPAPEAAGGPSVFLFPPKPKDTLMISRTPEVTCVVVDVSHEDPEVKFNWYVDGVEVHNAKTKPREEQYNSTYRVVSVLTVLHQDWLNGKEYKCKVSNKALAAPIEKTISKAKGQPREPQVYTLPPSRDELTKNQVSLTCLVKGFYPSDIAVEWESNGQPENNYKTTPPVLDSDGSFFLYSKLTVDKSRWQQGNVFSCSVLHEALHSHYTQKSLSLSPGKGGSDSWMEEVIKLCGRELVRAQIAICGKSTGGEGGGEEGGGEGGQLYSALANKCCHVGCTKRSLARFC
B9: SEQ ID NO: 209 (Fc fusion)
chain: DKTHTCPPCPAPEAAGGPSVFLFPPKPKDTLMISRTPEVTCVVVDVSHEDPEVKFNWYVDGVEVHNAKTKPREEQYNSTYRVVSVLTVLHQDWLNGKEYKCKVSNKALAAPIEKTISKAKGQPREPQVYTLPPSRDELTKNQVSLTCLVKGFYPSDIAVEWESNGQPENNYKTTPPVLDSDGSFFLYSKLTVDKSRWQQGNVFSCSVLHEALHSHYTQKSLSLSPGKGGSDSWQEEVIKLCGRELVRAQIAICGKSTGGEGGGEEGGGEGGQLYSALANKCCHVGCTKRSLARFC
B10: SEQ ID NO: 210 (Fc fusion)
chain: DKTHTCPPCPAPEAAGGPSVFLFPPKPKDTLMISRTPEVTCVVVDVSHEDPEVKFNWYVDGVEVHNAKTKPREEQYNSTYRVVSVLTVLHQDWLNGKEYKCKVSNKALAAPIEKTISKAKGQPREPQVYTLPPSRDELTKNQVSLTCLVKGFYPSDIAVEWESNGQPENNYKTTPPVLDSDGSFFLYSKLTVDKSRWQQGNVFSCSVLHEALHSHYTQKSLSLSPGGGSDSWMEEVIKLCGRELVRAQIAICGKSTGGEGGGEEGGGEGGQLYSALANKCCHVGCTKRSLARFC
B11: SEQ ID NO: 211 (Fc fusion)
chain: DKTHTCPPCPAPEAAGGPSVFLFPPKPKDTLMISRTPEVTCVVVDVSHEDPEVKFNWYVDGVEVHNAKTKPREEQYNSTYRVVSVLTVLHQDWLNGKEYKCKVSNKALAAPIEKTISKAKGQPREPQVYTLPPSRDELTKNQVSLTCLVKGFYPSDIAVEWESNGQPENNYKTTPPVLDSDGSFFLYSKLTVDKSRWQQGNVFSCSVLHEALHSHYTQKSLSLSPGGGSDSWQEEVIKLCGRELVRAQIAICGKSTGGEGGGEEGGGEGGQLYSALANKCCHVGCTKRSLARFC
B12: SEQ ID NO: 212 (Fc fusion)
chain: DKTHTCPPCPAPEAAGGPSVFLFPPKPKDTLMISRTPEVTCVVVDVSHEDPEVKFNWYVDGVEVHNAKTKPREEQYNSTYRVVSVLTVLHQDWLNGKEYKCKVSNKALAAPIEKTISKAKGQPREPQVYTLPPSRDELTKNQVSLTCLVKGFYPSDIAVEWESNGQPENNYKTTPPVLDSDGSFFLYSKLTVDKSRWQQGNVFSCSVLHEALHSHYTQKSLSLSPGKGGSDSWKEEVIKLCGRELVRAQIAICGKSTASDAAGANANAGARQLYSALANKCCHVGCTKRSLAQFC
B13: SEQ ID NO: 213 (Fc fusion)
chain: DKTHTCPPCPAPEAAGGPSVFLFPPKPKDTLMISRTPEVTCVVVDVSHEDPEVKFNWYVDGVEVHNAKTKPREEQYNSTYRVVSVLTVLHQDWLNGKEYKCKVSNKALAAPIEKTISKAKGQPREPQVYTLPPSRDELTKNQVSLTCLVKGFYPSDIAVEWESNGQPENNYKTTPPVLDSDGSFFLYSKLTVDKSRWQQGNVFSCSVLHEALHSHYTQKSLSLSPGKGGSDSWKEEVIKLCGRELVRAQIAICGKSTASDAAGANANAGARQLYSALANKCCHVGCTKRSLAEFC
B14: SEQ ID NO: 66 (Fc fusion)
chain: DKTHTCPPCPAPEAAGGPSVFLFPPKPKDTLMISRTPEVTCVVVDVSHEDPEVKFNWYVDGVEVHNAKTKPREEQYNSTYRVVSVLTVLHQDWLNGKEYKCKVSNKALAAPIEKTISKAKGQPREPQVYTLPPSRDELTKNQVSLTCLVKGFYPSDIAVEWESNGQPENNYKTTPPVLDSDGSFFLYSKLTVDKSRWQQGNVFSCSVLHEALHSHYTQKSLSLSPGKGGSDSWQEEVIKLCGRELVRAQIAICGKSTGGGEGGGEGGGEGRQLYSALANKCCHVGCTKRSLAQFC
B15: SEQ ID NO: 68 (Fc fusion)
chain: DKTHTCPPCPAPEAAGGPSVFLFPPKPKDTLMISRTPEVTCVVVDVSHEDPEVKFNWYVDGVEVHNAKTKPREEQYNSTYRVVSVLTVLHQDWLNGKEYKCKVSNKALAAPIEKTISKAKGQPREPQVYTLPPSRDELTKNQVSLTCLVKGFYPSDIAVEWESNGQPENNYKTTPPVLDSDGSFFLYSKLTVDKSRWQQGNVFSCSVLHEALHSHYTQKSLSLSPGGGSDSWQEEVIKLCGRELVRAQIAICGKSTGGGEGGGEGGGEGRQLYSALANKCCHVGCTKRSLARFC
B16: SEQ ID NO: 70 (Fc fusion)
chain: DKTHTCPPCPAPEAAGGPSVFLFPPKPKDTLMISRTPEVTCVVVDVSHEDPEVKFNWYVDGVEVHNAKTKPREEQYNSTYRVVSVLTVLHQDWLNGKEYKCKVSNKALAAPIEKTISKAKGQPREPQVYTLPPSRDELTKNQVSLTCLVKGFYPSDIAVEWESNGQPENNYKTTPPVLDSDGSFFLYSKLTVDKSRWQQGNVFSCSVLHEALHSHYTQKSLSLSPGGGSDSWQEEVIKLCGRELVRAQIAICGKSTGGGEGGGEGGGEGRQLYSALANKCCHVGCTKRSLAQFC
B17: SEQ ID NO: 72 (Fc fusion)
chain: DKTHTCPPCPAPEAAGGPSVFLFPPKPKDTLMISRTPEVTCVVVDVSHEDPEVKFNWYVDGVEVHNAKTKPREEQYNSTYRVVSVLTVLHQDWLNGKEYKCKVSNKALAAPIEKTISKAKGQPREPQVYTLPPSRDELTKNQVSLTCLVKGFYPSDIAVEWESNGQPENNYKTTPPVLDSDGSFFLYSKLTVDKSRWQQGNVFSCSVLHEALHSHYTQKSLSLSPGKGGSDSWQEEVIKLCGRELVRAQIAICGKSTGGGEEGGGEEGGGRQLYSALANKCCHVGCTKRSLARFC
B18: SEQ ID NO: 74 (Fc fusion)
chain: DKTHTCPPCPAPEAAGGPSVFLFPPKPKDTLMISRTPEVTCVVVDVSHEDPEVKFNWYVDGVEVHNAKTKPREEQYNSTYRVVSVLTVLHQDWLNGKEYKCKVSNKALAAPIEKTISKAKGQPREPQVYTLPPSRDELTKNQVSLTCLVKGFYPSDIAVEWESNGQPENNYKTTPPVLDSDGSFFLYSKLTVDKSRWQQGNVFSCSVLHEALHSHYTQKSLSLSPGKGGSDSWQEEVIKLCGRELVRAQIAICGKSTGGGEEGGGEEGGGRQLYSALANKCCHVGCTKRSLAQFC

Each binder was assayed against human RXFP1, full-length (human), Q9HBX9 (assay: cell-based or functional assay).
human RXFP1, full-length (human), Q9HBX9, sequence (Q9HBX9 whole entry): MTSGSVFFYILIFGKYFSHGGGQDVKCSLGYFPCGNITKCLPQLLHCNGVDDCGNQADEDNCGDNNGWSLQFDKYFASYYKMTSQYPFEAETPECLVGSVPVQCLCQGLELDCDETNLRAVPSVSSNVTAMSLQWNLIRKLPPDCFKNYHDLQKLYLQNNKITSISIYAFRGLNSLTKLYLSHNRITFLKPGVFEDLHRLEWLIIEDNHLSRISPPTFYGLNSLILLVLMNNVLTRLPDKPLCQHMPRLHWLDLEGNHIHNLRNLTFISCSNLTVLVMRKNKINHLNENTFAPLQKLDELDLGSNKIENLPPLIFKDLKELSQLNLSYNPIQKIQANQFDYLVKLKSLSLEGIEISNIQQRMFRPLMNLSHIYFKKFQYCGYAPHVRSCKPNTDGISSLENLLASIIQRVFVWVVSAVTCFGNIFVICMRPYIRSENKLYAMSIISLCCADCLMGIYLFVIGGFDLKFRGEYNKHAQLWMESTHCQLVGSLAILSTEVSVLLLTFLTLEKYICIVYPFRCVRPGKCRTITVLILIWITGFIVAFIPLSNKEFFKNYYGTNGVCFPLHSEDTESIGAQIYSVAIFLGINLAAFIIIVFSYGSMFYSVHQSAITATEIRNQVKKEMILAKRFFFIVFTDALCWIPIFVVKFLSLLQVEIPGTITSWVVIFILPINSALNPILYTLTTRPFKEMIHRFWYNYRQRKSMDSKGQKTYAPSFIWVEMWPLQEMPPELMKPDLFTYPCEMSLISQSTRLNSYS

Binder B1 has an EC50 in nM (cAMP Response in RXFP1 Transfected HEK293 Cells) of 0.042 nM.

Compared with B1, B2 is 25-fold higher in Potency Assay EC50 (nM), transient hRXFP1 cAMP assay: 0.1 nM for the first, 2.5 nM for the second.

First: B3
Second: B4
The Potency Assay EC50 (nM), transient hRXFP1 cAMP assay of the first is 4.2-fold higher: 12.3 nM for the first, 2.9 nM for the second.

Going from B5 to B6, the Potency Assay EC50 (nM), transient hRXFP1 cAMP assay rises from 2.5 nM to 16 nM (6.4-fold).

First: B7
Second: B8
The Potency Assay EC50 (nM), transient hRXFP1 cAMP assay of the first is 3.8-fold lower: 15.8 nM for the first, 60.3 nM for the second.

Compared with B9, B10 is 2.2-fold higher in Potency Assay EC50 (nM), transient hRXFP1 cAMP assay: 62.8 nM for the first, 140 nM for the second.

Going from B11 to B12, the Potency Assay EC50 (nM), transient hRXFP1 cAMP assay falls from 101 nM to 0.5 nM (200-fold).

First: B13
Second: B14
The Potency Assay EC50 (nM), transient hRXFP1 cAMP assay of the first is 2.3-fold lower: 1.8 nM for the first, 4.2 nM for the second.

Compared with B15, B16 is 2.4-fold higher in Potency Assay EC50 (nM), transient hRXFP1 cAMP assay: 3.3 nM for the first, 8 nM for the second.

First: B17
Second: B18
The Potency Assay EC50 (nM), transient hRXFP1 cAMP assay of the first is 1.8-fold lower: 5.8 nM for the first, 10.2 nM for the second.

With B1 the pEC50 (cAMP Response in RXFP1 Transfected HEK293 Cells) was 10.4.
